Results published in US20060269557A1 (CITY OF HOPE, published 2006).
Positions count from the first letter of the chain named. Names and notes keep the numbering of the source.

T1: soluble PSCA fused human IgG1 or mouse IgG2a Fc (UniProt O43653 12-86, limits assumed)
T1 construct: also called PSCA-Fc; not shown: human IgG1 Fc or mouse IgG2a Fc
T1 sequence (looked up): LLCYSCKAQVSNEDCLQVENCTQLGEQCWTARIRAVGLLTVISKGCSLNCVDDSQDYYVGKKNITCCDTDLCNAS

B1: murine monoclonal antibody 1G8 (antibody, V domains shown)
VH: EVQLQQSGAELVRSGASVKLSCTASGFNIKDYYIHWVNQRPDQGLEWIGWIDPENGDTEFVPKFQGKATMTADIFSNTAYLHLSSLTSEDTAVYYCKTGGFWGQGTLVTVSA
VL: QVVLTQSPAIMSASPGEKVTMACSASSSVRFIHWYQQKSGTSPKRWIYDTSKLASGVPTRFSGSGSGTSYSLTISTMEAEDAATYYCQQWSSSPFTFGSGTKLIIK
notes: Intact murine antibody from hybridoma; also called mu1G8; parental mu1G8
B2: humanized 1G8 antibody hu1G8-B (antibody, V domains shown)
VH: EVQLVESGGGLVQPGGSLRLSCAASGFNIKDYYIHWVRQAPGKGLEWVAWIDPENGDTEFVPKFQGRATISADTSKNTAYLQMNSLRAEDTAVYYCKTGGFWGQGTLVTVSS
VL: DIQLTQSPSSLSASVGDRVTITCSASSSVRFIHWYQQKPGKAPKRLIYDTSKLASGVPSRFSGSGSGTDFTLTISSLQPEDFATYYCQQWSSSPFTFGQGTKVEIK
notes: Labelled with 124I in the immunoreactivity assays; also called M6B; clone 2B3
B3: humanized 1G8 antibody hu1G8-A (antibody, V domains shown)
VH: B2 VH with V61A, P62D, K63S, F64V, Q65K, A68F
VL: B2 VL
notes: also called M6A

Experiments:
[1] = target: T1, soluble PSCA fused human IgG1 or mouse …; experiment: competitive ELISA on coated PSCA-Fc, biotinylated mu1G8 as tracer
Experimental: (§1) The relative binding affinities of the antibodies were measured by competitive ELISA using biotinylated mu1G8 as tracer. Wells were coated with soluble PSCA fused human IgG1 or mouse IgG2a Fc that had been expressed in pEE12 as described above and purified by Protein A affinity chromatography (Poros2.0; PerkinElmer, Wellesley, Mass.). A fixed concentration of biotinylated parental antibody and increasing concentrations of non-biotinylated competitors were used as previously described (Olafsen 2004). Detection of biotinylated antibody was made with alkaline phosphatase-conjugated streptavidin (Jackson ImmunoResearch Laboratories).

[2] = target: T1, soluble PSCA fused human IgG1 or mouse …; experiment: relative binding affinity, competitive ELISA
Experimental: as §1

| Kd [1] [nM] | fold higher relative binding affinity compared to hu1G8-A [2] [fold] | fold lower binding affinity than mu1G8 [2] [fold] | Binder |
| --- | --- | --- | --- |
| ~5 |  |  | B1 |
| ~25 | 6 | ~5 | B2 |
| ~150 |  |  | B3 |
